Results as given in the supplement of paper PMC9170038.

Tested on: MS2 coat protein
Assay: apparent KD of MS2 coat protein; higher = weaker reporter binding
Details: Eterna round: R107
In short: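 SNAP-549-labelled MS2 coat protein was titrated onto designed RNA switches that had been transcribed on-chip from Illumina sequencing clusters. Amounts doubled from 0.7 or 1.5 nM to 3 µM in 100 mM Tris-HCl pH 7.5, 80 mM KCl, 4 mM MgCl2, with constant ligand or without. Apparent KD is the median per design of normalised cluster binding-curve fits.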

[1] = input ligand: theophylline 20 uM
[2] = input ligand: tryptophan 2.4 mM
[3] = input ligand: theophylline 2 mM

Row | Sequence | apparent KD of MS2 coat protein (input ligand: arginine 13.2 mM) [nM] | apparent KD of MS2 coat protein [1] [nM] | apparent KD of MS2 coat protein [2] [nM] | apparent KD of MS2 coat protein [3] [nM] | apparent KD of MS2 coat protein (input ligand: none) [nM]
1 | AUUUAUAGUUGUGAUACCAGACUUACAUGAGGAUCACCCAUGUUACUUAAAUGUUUUGAUGUCCCUUGGCAGCACUGUUUUUUUA [JR_Nu_ExcTheophyB_Sub029] | 16.1 | 22.6 | 16.4 |  | 
2 | CAAAUAAGAACAAACAAAUAACGGUUUUCGCGAGGACCGGUACGGCCGCCACUCGUGUGAAAUAACACAUGAGGAUCACCCAUGU [3'end-1] | 31.8 | 44.6 |  | 47.9 | 
3 | CAACUGGCAGAGGAUACCAGAUCAUUUAGAAACAUGAGGAUCACCCAUGUCGUAAGGAUAAUCCCUUGGCAGCCUAUCCGCCUCG [theeternabot_sameState_MS2_Theo_B_48] | 14.2 | 16.6 | 14.5 |  | 
4 | CACAUGAGGAUCACCCAUGUGUAAUAUGAAGGAGCGUCGGAAAUGACAGGUAGGUCGCAUGAAAUGCAAGUGUGUGAGGUUGUGA [EAA NP+V+V2 #12] | 9.17 | 17.7 | 10.9 | 10.5 | 10
5 | CACGCACGAUCGGCCGCCACUCAUGUAGCUUACAUGAGGAUCACCCAUGUAUUUUCUUUCUUUUAGAGGACCGGGAUCGUGCGUG [#03 Same State - Tryptophan B] | 25 | 48.5 |  | 35 | 
6 | CACGGAUGAGUGGAUCACCCUCAUAAUAACCGAGGACCGGUACGGCCGCCACUCGAAAACCGUGACCUGUACGAAAAGUGCAGGA | 28 | 486 | 708 | 782 | 33.5
7 | CCAUAAGUACCGGUCCUCAGAUCCUCAUGACGAGGACCGGUACGGCCGCCACUCGAAACAUGAGGAUCACCCAUGUAAUAAUAUU [Brourdmod14] | 19.3 | 45.4 |  | 31.1 | 
8 | CCCAUACAUGAGGAUCACCCAUGUGUUGAUACCAGCAUAUGUAGAUGCCCUUGGCAGCAAGCUUGGGUCACUGGAAAACAUCUAA [theeternabot_sameState_MS2_Theo_A_38] | 23.8 | 27.4 | 22.6 |  | 
9 | CCGUUUUAUGGCGACAUAGGGCGGACUGAAGGAGCGGUAUAAAAGCCAGGUAGGUCGCAGAGAUCCACAUGAGGAUCACCCAUGU [!0.aA] | 29.4 | 45.8 | 51 | 41 | 39.7
10 | CCUCAAUAGACGGCCGCCACUGAAACAUGCGGAUACAUGAGGAUCACCCAUGUGGGUGUGUUACGCAGGACCGGGUCAAGACCCG [#12 Same State - Tryptophan B] | 115 | 316 |  | 583 | 
11 | CCUCCUUGUACGGCCGCCACUGCAUCUCUGGAUACUCCGAUAAUACAUGAGGAUCACCCAUGUUACAGGACCGGGUAUAUAUUAC [theeternabot_sameState_MS2_Trp_B_19] | 14.7 | 18.7 |  | 15.3 | 
12 | CGAAUAUAGACGGCCGCCACUCUACAAACAUGAGGAUCACCCAUGUUCACAUAGUGGAAACACAUGAGGACCGGGUCAUAGGCAU [#18 Same State - Tryptophan B] | 19.2 | 25.4 |  | 21.3 | 
13 | CGAUAGAUACGAAGGAGCGACAUGAGGAUCACCCAUGUCUACCACGUCGAAAGACGCUCAUGUCAGGUAGGUCGCGUAUUUAUCG [Astros-Eli-mod8] | 60.3 | 124 | 101 | 156 | 122
14 | CGGCCCUCACCUGAGGAUCACCCGGGUGAUACCAGCCUGGAAACAGGCCCUUGGCAGCACCAGGUCAUCAAAGAUGACCAAGCCG [TheoAX 26 #OpenEnded #AlternativeMS2] | 21.3 | 110 | 105 | 2630 | 97.5
15 | CGUAUUACGAAAGUAGUACGUAGUUCGAGUCGAGGACCGGUACGGCCGCCACUCGGACAUGAGGAUCACCCAUGUAGCGAAAGCU [Tryptophan A 23] | 68.2 | 156 | 72.4 | 161 | 125
16 | CGUAUUGUAACUGAUACCAGUGUACUGACAUGAGGAUCACCCAUGUUGGGUUUUGUUGUACACCCUUGGCAGCAGAAUCAAUACG [AstrosExyTheB#5] | 59.4 | 74.2 | 65.8 |  | 
